Assay results: patent US20240309102A1 (LENTIGEN TECHNOLOGY, published 2024)

T1: recombinant human CD123-Fc (human, UniProt P26951 19-305, limits assumed)
T1 construct: Panning and sorting antigen; not shown: Fc part
T1 sequence (looked up): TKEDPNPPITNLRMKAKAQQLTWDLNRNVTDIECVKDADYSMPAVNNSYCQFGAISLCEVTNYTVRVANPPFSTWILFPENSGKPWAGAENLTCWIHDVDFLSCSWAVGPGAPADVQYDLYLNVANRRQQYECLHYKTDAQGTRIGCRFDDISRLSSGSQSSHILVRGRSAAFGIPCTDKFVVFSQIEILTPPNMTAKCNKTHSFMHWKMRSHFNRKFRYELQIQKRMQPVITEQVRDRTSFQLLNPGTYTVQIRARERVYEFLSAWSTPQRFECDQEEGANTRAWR

B1: CD123 hScFv binder M12306 (scFv)
scFv: EVQLVQSGSELKKPGASVKVSCKASGGTFSSYAISWVRQAPGQGLEWMGGIIPIFGTANYAQKFQGRVTITADESTSTAYMELSSLRSEDTAVYYCASTARRGWDTAGPLDYWGQGTLVTVSSGGGGSGGGGSGGGGSDIQMTQSPSSLSASVGDRVTIACRASQTISRYLNWYQQKPGKAPKLLIYAASSLQSGVSSRFSGSGSGTEFTLTISSLQPEDFATYFCQQTYSPPITFGQGTRLEIK
B2: CD123 hScFv binder M12315 (scFv)
scFv: QVQLQQWGAGLLKPSETLSLTCAVYGGSFSGYYWSWIRQPPGKGLEWIGEINHSGSTNYNPSLKSRVTISVDTSKNQFSLKLSSVTAADTAVYYCARGQVKYSSSLGYWGQGTLVTVSSGGGGSGGGGSGGGGSQSVLTQPPSVSAAPGQKVTISCSGSSSNIGNNFVSWYQQLPGTAPKLLIYEDNKRPSGIPDRFSGSRSGTSATLGITGLQTGDEADYYCGTWDSSLGAWVFGGGTKLTVLG
B3: CD123 hScFv binder M12313 (scFv)
scFv: EVQLVQSGAEVKKPGSSVKVSCKASGGTFSSYAISWVRQAPGQGLEWMGGIIPIFGTANYAQKFQGRVTITADESTSTAYMELSSLRSEDTAVYYCASQKGGGWSIDAFDIWGQGTMVTVSSGGGGSGGGGSGGGGSQSVLTQPPSVSAASGQRVTISCSGSSSNIGNNYASWYQQLPGMAPKLLIYEDNKRPSGISDRFSGSQSGTSASLAITGLQAEDEADYYCQSYDSSLSGDVVFGGGTKLTVLG
B4: CD123 hScFv binder M12316 (scFv)
scFv: EVQLVESGGGLVQPGGSLRLSCAASGFTFSSYAMHWVRQAPGKGLEWVSSISSSSSYIYYADSVKGRFTISRDNSKNTLYLQMNSLRAEDTAVYYCARDWDDAFDIWGQGTTVTVSSGGGGSGGGGSGGGGSDIQMTQSPSSLSASVGDRVTITCQASQDISNYLNWYQQKPGKAPKLLIYDASNLETGVPSRFSGSGSGTDFTFTISSLQPEDIATYYCQQYDNLPLTFGGGTKLEIK
B5: CD123 hScFv binder M12308 (scFv)
scFv: EVQLVETGAEVKNPGSSVKVSCKASGGTLSNYAISWVRQAPGKGLEWMGGIIPIFGTANYAQKFQGRVTITADESTSTAYMELSSLRSEDTAVYYCARRSSWYPEGCFQHWGQGTLVTVSSGGGGSGGGGSGGGGSDIQLTQSPSSLSASTGDRVTITCRASQGISSYLAWYQQKPGKAPKLLIYAASTLQSGVPSRFSGSGSGTDFTLTISCLQSEDFATYYCQQYYSYPLTFGGGTKLDIK
B6: CD123 hScFv binder M12311 (scFv)
scFv: EVQLVQSGAEVKKPGSSVKVSCKASGGTFSSYAISWVRQAPGQGLEWMGGIIPIFGTANYAQKFQGRVTITADESTSTAYMELSSLRSEDTAVYYCARARLGGAFDIWGQGTMVTVSSGGGGSGGGGSGGGGSQSVLTQPPSVSAAPGQKVTISCSGGSSNIGNHYVSWYQQLPGAAPKLLIYDDNKRPSGIPDRFSGSRSGTSATLGITGLQSGDEADYYCGTWDSSLAAHVFGTGTKVTVLG
B7: CD123 hScFv binder M12318 (scFv)
scFv: EVQLVQSGGGVVQPGRSLRLSCAASGFTFSSYSMNWVRQAPGKGLEWVSSISSSSSYIYYADSVKGRFTISRDNAKNTLYLQMNSLRAEDTAVYYCARDNWGSLDYWGQGTLVTVSSGGGGSGGGGSGGGGSDIQMTQSPSSLSASVGDRVTITCQASQDISNYLNWYQQKPGKAPKLLIYDASNLETGVPSRFSGSGSGTDFTFTISSLQPEDIATYYCQQYDNLPHMYTFGQGTKLEIK
B8: CD123 hScFv binder M12314 (scFv)
scFv: EVQLVQSGAEVKKPGSSVKVSCKASGGTFSSYAISWVRQAPGQGLEWMGGIIPIFGTANYAQKFQGRVTITADESTSTAYMELSSLRSEDTAVYYCARVGCSGGSCYPDYWGQGTLVTVSSGGGGSGGGGSGGGGSEIVLTQSPSSLSASVGDRVTITCQASQDISNYLNWYQQKPGKAPKLLIYDASNLETGVPSRFSGSGSGTDFTFTISSLQPEDIATYYCQQYDNLPLTFGGGTKLDIK
B9: CD123 hScFv binder M12309 (scFv)
scFv: EVQLVQSGAEVKKPGATVKISCKVSGYTFTDYYMHWVQQAPGKGLEWIGLVDPEDGETIYAEKFQGRVTITADTSTDTAYMELSSLRSEDTAVYYCATAPLGEVGAAVDYWGQGTLVTVSSGGGGSGGGGSGGGGSHVILTQPPSVSAAPGQEVSISCSGSDANIGTNLVSWYQHVPGTAPKLLIYENSKRPSGIPARFSSSQSGTSATLAISGLQSGDEAIYYCLTWDRTLSGKIFGGGTQLTVLG
B10: CD123 hScFv binder M12317 (scFv)
scFv: QVQLVETGGGLVKPGGSLRLSCAASGFTFSSYSMNWVRQAPGKGLEWVSSISSSSSYIYYADSVKGRFTISRDNAKNSLYLQMNSLRAEDTAVYYCARDGDFWSGAIDYWGQGTLVTVSSGGGGSGGGGSGGGGSDIQLTQSPSSLSASVGDRVTITCQASQDISNYLNWYQQKPGKAPKLLIYDASNLETGVPSRFSGSGSGTDFTFTISSLQPEDIATYYCQQYDNLPLFGGGTKLEIK
B11: CD123 hScFv binder M12305 (scFv)
scFv: QVQLVQSGAEVKKPGSSVKVSCKASGGTFSSYAISWVRQAPGQGLEWMGGIIPIFGTANYAQKFQGRVTITTDESTSTAYMELSSLRSEDTAVYYCARRGWGGFSSGSAFDIWGQGTMVTVSSGGGGSGGGGSGGGGSNFMLTQPHSVSESPGNTVTISCTGSSGTIGSNFVQWYQQSPGRAPTLLIYEDTKRPSGVPPRFAGSVDSSSNSASLTISGLKTEDEADYYCQSYDSSNWVFGGGTKLTVLG
B12: CD123 hScFv binder M12303 (scFv)
scFv: EVQLVETGAEVKKPGASVKVSCKASGYTFTTYYVHWVRQAPGQGLEWMGIINPSGGSTSYAQKFQGRVTMTRDTSTSTVYMELSSLRSEDTAVYYCARDGGLGGYEAWGQGTLVTVSSGGGGSGGGGSGGGGSDIQLTQSPSALSASAGDRVTITCQASQDISNYLNWYQQKPGKAPKLLIYDASNLERGVPSRFSGSGSGTEFTFTISSLQPEDIATYYCQQYDNLPITFGQGTRLEIK

These binders were tested against T1, recombinant human CD123-Fc (assay: yeast display; 3 rounds of MACS and a FACS sort (top 1%) with CD123-Fc; clone sequenced from the sorted pool, not tested singly).
Procedure: A large yeast display human naive single chain variable fragment (ScFv) antibody library was used to isolate anti-human CD123 antibodies described herein. The library was constructed using a collection of human antibody gene repertoires from more than 60 individuals. Three rounds of magnetic-activated cell sorting (MACS) were performed to enrich human ScFv binders to the recombinant human CD123-Fc. For the first round of yeast library panning, the yeast display ScFv library (5×10¹⁰ cells) was incubated with 5 μg/mL CD123-Fc in 15 ml PBSA (consisting of 0.1% Bovine Serum Albumin (BSA) in Dulbecco's phosphate-buffered saline (PBS) buffer), at room temperature on a rotator for 1.5 hours. After two times washing with 25 ml PBSA, the yeast library mix was incubated with 100 μL Protein G microbeads (Miltenyi Biotec) at room temperature on a rotator for 30 minutes. After one time washing, the library mix was resuspended in 50 ml of PBSA and loaded onto the MACS cell separation column (LS column). After three times washing with 10 ml PBSA. […] These eluted yeast cells were combined and then resuspended into 50 ml SDCAA medium (20 g D-glucose, 6.7 g BD Difco™ Yeast Nitrogen Base without Amino Acids, 5 g Bacto™ Casamino Acids, 5.4 g Na2·HPO4, and 8.56 g NaH2PO4·H2O in 1 L water) and amplified with shaking at 225 rpm at 30° C. for 20 hours. The amplified pool was then induced in SGCAA medium (consisting of the same composition of SDCAA medium, but containing galactose instead of glucose), with shaking at 225 rpm at 30° C. for another 16 hours and used for next round of panning. The same process was repeated two more times to enrich the CD123-Fc specific binders.
To further enrich the binders with higher affinity and better specificity, FACS based sorting was employed to isolate the strongest binders from the pool. The induced pool was incubated with 1 μg/ml of CD123-Fc at room temperature for 1 hour and then stained with Anti-c-Myc-Alexa 488 and Goat anti-Hu-Fc PE conjugates, the top 1% of the pool with the highest PE versus FITC signal was gated and sorted. The sorted pool was amplified in SDCAA medium and yeast plasmid DNA was extracted and transformed into bacterial for single clone DNA sequencing. 40 random clones were sequenced and 36 unique sequences were identified.

Binding result, binds:
B1
B2
B3
B4
B5
B6
B7
B8
B9
B10
B11
B12
